Reference: patent publication US20190389941A1 (GLIKNIK, published 2019)

Target: T1, G990 (Homo sapiens (Human), UniProt P0DOX5 218-449 = IgG part)
T1 construct: GL-2045 background (IgG1 hinge-CH2-CH3-IgG2 hinge) with G236R; homodimeric unit that multimerizes; also called stradomer G990
Assay: BLI (ForteBio Octet), His-tagged receptor on sensor tip; summary grade
Method: Binding of general stradomers or parent stradomer GL-2045 to FcγRI, FcγRIIb, FcγRIIIa, FcγRIIa, was assessed. RU values of dissociation were measured by biolayer interferometry using a ForteBio Octet instrument. His-tagged receptor proteins were bound to the sensor tip in 1X kinetic analysis buffer from ForteBio after which the on rate of the receptor/protein was measured by transferring the sensor tip to a 1x kinetics buffer containing the purified stradomer of choice. Off rate was measured by transferring the sensor tip to a 1X kinetics buffer, and RU value was calculated from the measured maximum binding using the ForteBio software. Biolayer interferometry detects the binding between a ligand immobilized on the biosensor tip surface and an analyte in solution. When binding occurs it produces an increase in optical thickness at the biosensor tip, which results in a wavelength shift (detected as a response unit of “RU”). The maximum binding level (RU max) is the maximum possible amount of sample binding at equilibrium that saturates the amount of ligand on the sensor surface. The RU 300 is the residual sample binding after 300 seconds of dissociation and is useful to characterize the rate of dissociation of the test article from the test ligand.

binding result | Binder
no binding | FcγRIIa (receptor, UniProt P12318 34-217, looked up, also called His-tagged receptor protein; CD32; not shown: His tag) QAAAPPKAVLKLEPPWINVLQEDSVTLTCQGARSPESDSIQWFHNGNLIPTHTQPSYRFKANNNDSGEYTCQTGQTSLSDPVHLTVLSEWLVLQTPHLEFQEGETIMLRCHSWKDKPLVKVTFFQNGKSQKFSHLDPTFSIPQANHSHSGDYHCTGNIGYTLFSSKPVTITVQVPSMGSSSPMG
no binding | FcγRIIb (receptor, UniProt P31994 43-217, looked up, also called His-tagged receptor protein; CD32; not shown: His tag) TPAAPPKAVLKLEPQWINVLQEDSVTLTCRGTHSPESDSIQWFHNGNLIPTHTQPSYRFKANNNDSGEYTCQTGQTSLSDPVHLTVLSEWLVLQTPHLEFQEGETIVLRCHSWKDKPLVKVTFFQNGKSKKFSRSDPNFSIPQANHSHSGDYHCTGNIGYTLYSSKPVTITVQAP
